The target of this assay is tube protein gp14 (cyanophage Pam3). Briefly: cryo-EM structure.

Stoichiometry N data for one substance are collected here from article PMC9942802.

With tube protein gp14 (natural protein), the stoichiometry N (as a rule, a count of units in the complex or per binding partner) was determined as 6.
